# ± gives the uncertainty stated by the source.
# B1: Ankyrin repeat and SOCS box protein 14, residues 532 to 572; numbered along this chain, A6NK59 (parent)
# chain: RSLKHLCRLKIRKCMGRLHLRCPVFMSFLPLPNRLKAYVLY
# Variants of: B1
# Assay: abundance fitness (aPCA) (normalised: wild type 0, dead -1); higher = more abundant; growth selection in yeast, the domain comes from the species named
# Conditions: Homo sapiens
row,Variant,abundance fitness
1,RSLKHLCRLKIRKCMGRLHLRCPVFMSFLPLPLRLKAYVLY [N33L],-0.432 ± 0.073
2,RSLKHLCRLKIRKCMGRLHLRCPVFMSFLPLPDRLKAYVLY [N33D],0.057 ± 0.12
3,RSLKHLCRLKIRKCMGRLHLRCPVFMSFLPLPARLKAYVLY [N33A],0.234 ± 0.046
4,RSLKHLCRLKIRKCMGRLHLRCPVFMSFLPLPWRLKAYVLY [N33W],-0.528 ± 0.078
5,RSLKHLCRLKIRKCMGRLHLRCPVFMSFLPLPNRLKSYVLY [A37S],-0.143 ± 0.059
6,RSLKHLCRLKIRKCMGRLHLRCPVFMSFLPLPNRLKEYVLY [A37E],0.021 ± 0.1
7,RSLKHLCRLKIRKCMGRLHLRCPVFMSFLPLPNRLKLYVLY [A37L],-0.404 ± 0.06
8,RSLKHLCRLKIRKCMGRLHLRCPVFMSFLPLGNRLKAYVLY [P32G],-0.223 ± 0.05
9,RSLKHLCRLKIRKCMGRLHLRCPVFMSFLPLHNRLKAYVLY [P32H],-0.47 ± 0.17
10,RSLKHLCRLKIRKCMGDLHLRCPVFMSFLPLPNRLKAYVLY [R17D],-0.07 ± 0.23
11,RSLKHLCRLKIRKCMGFLHLRCPVFMSFLPLPNRLKAYVLY [R17F],0.551 ± 0.24
12,RSLKHLCRLKIRLCMGRLHLRCPVFMSFLPLPNRLKAYVLY [K13L],-0.241 ± 0.048
13,RSLKHLCRLKIRWCMGRLHLRCPVFMSFLPLPNRLKAYVLY [K13W],-0.166 ± 0.059
14,RSLKHLCRLKIRMCMGRLHLRCPVFMSFLPLPNRLKAYVLY [K13M],-0.09 ± 0.1
15,RSLKHLCRLKIRSCMGRLHLRCPVFMSFLPLPNRLKAYVLY [K13S],-0.031 ± 0.058
16,RSKKHLCRLKIRKCMGRLHLRCPVFMSFLPLPNRLKAYVLY [L3K],-0.575 ± 0.12
17,RSAKHLCRLKIRKCMGRLHLRCPVFMSFLPLPNRLKAYVLY [L3A],-0.939 ± 0.099
18,RSWKHLCRLKIRKCMGRLHLRCPVFMSFLPLPNRLKAYVLY [L3W],0.011 ± 0.056
19,RSLKHLCRLKIRKCMGRLHLRCPVFMSWLPLPNRLKAYVLY [F28W],0.177 ± 0.052
20,RSLKHLCRLKIRKCMGRLHLRCPVFMSNLPLPNRLKAYVLY [F28N],0.005 ± 0.13
21,RSLKHLCRLKIRKCMGRLHLRCPVFMWFLPLPNRLKAYVLY [S27W],-0.156 ± 0.061

row,Variant,abundance fitness
1,RSLKHLCRLKIRKCMGRLHLRCPVFMGFLPLPNRLKAYVLY [S27G],-0.075 ± 0.049
2,RSLKHLCRLKIRKCMGRLHLRCPVFMCFLPLPNRLKAYVLY [S27C],-0.536 ± 0.33
3,RSLKHLCRLKIRKCMGRLHLRCPVFMVFLPLPNRLKAYVLY [S27V],-0.709 ± 0.15
4,TSLKHLCRLKIRKCMGRLHLRCPVFMSFLPLPNRLKAYVLY [R1T],-0.372 ± 0.29
5,RSLKHLCRLKIRKCMGRLTLRCPVFMSFLPLPNRLKAYVLY [H19T],-0.22 ± 0.066
6,RSLKHLCRLKIRKCMGRLCLRCPVFMSFLPLPNRLKAYVLY [H19C],-0.236 ± 0.086
7,RSLKHLCRLKIRKCMGRLHLRCPVFMSFLPLPNRLKAYQLY [V39Q],-1.3 ± 0.2
8,RSLKHLCRLKIRKCMGRLHLRCPVFMSFLPLPNRLTAYVLY [K36T],-0.423 ± 0.071
9,RSLKHLCRLKIRKCMGRLHLRCPVFMSFLPLPNRLLAYVLY [K36L],-0.242 ± 0.053
10,RSLKHLCRLKIRKCMGRLHLRCPVFMSFLPLPNRLSAYVLY [K36S],-0.662 ± 0.09
11,RSLKHLCRLKIRKCMGRLHLRCPVFMSFLPLPNRLFAYVLY [K36F],-0.022 ± 0.21
12,RSLKHLCGLKIRKCMGRLHLRCPVFMSFLPLPNRLKAYVLY [R8G],-0.004 ± 0.049
13,RSLKHLCALKIRKCMGRLHLRCPVFMSFLPLPNRLKAYVLY [R8A],0.104 ± 0.045
14,RSLKHLCQLKIRKCMGRLHLRCPVFMSFLPLPNRLKAYVLY [R8Q],-0.048 ± 0.091
15,RSLKHLCPLKIRKCMGRLHLRCPVFMSFLPLPNRLKAYVLY [R8P],0.076 ± 0.074
16,RSLKHLMRLKIRKCMGRLHLRCPVFMSFLPLPNRLKAYVLY [C7M],0.24 ± 0.075
17,RSLKHLQRLKIRKCMGRLHLRCPVFMSFLPLPNRLKAYVLY [C7Q],-0.529 ± 0.095
18,RSLKHLVRLKIRKCMGRLHLRCPVFMSFLPLPNRLKAYVLY [C7V],0.304 ± 0.05
19,RSLKHLSRLKIRKCMGRLHLRCPVFMSFLPLPNRLKAYVLY [C7S],-0.357 ± 0.088
20,RSLKHLTRLKIRKCMGRLHLRCPVFMSFLPLPNRLKAYVLY [C7T],-0.217 ± 0.056
21,RSLKHLHRLKIRKCMGRLHLRCPVFMSFLPLPNRLKAYVLY [C7H],-0.631 ± 0.12

row,Variant,abundance fitness
1,RSLKHLKRLKIRKCMGRLHLRCPVFMSFLPLPNRLKAYVLY [C7K],-0.596 ± 0.18
2,RSLKHLCRLKRRKCMGRLHLRCPVFMSFLPLPNRLKAYVLY [I11R],-0.956 ± 0.081
3,RSLKHLCRLKLRKCMGRLHLRCPVFMSFLPLPNRLKAYVLY [I11L],-0.09 ± 0.067
4,RSLKHLCRLKIRKCMGRLHLRCPVFMSFLPLPNRLKAGVLY [Y38G],-0.59 ± 0.091
5,RSLKHLCRLKIRKCMGRLHLRCPVFMSFLPLPNRLKACVLY [Y38C],-0.622 ± 0.1
6,RSLKHLCRLKIRKCMGRLHLRCPVFMSFLPLPNRLKAVVLY [Y38V],-0.558 ± 0.059
7,RSLKHLCRLKIRKCMGRLHLRCPVFMSFLPLPNRLKAAVLY [Y38A],-0.343 ± 0.063
8,RSLKHLCRLKIRKCMGRLHLRCPVFMSFLPHPNRLKAYVLY [L31H],-0.434 ± 0.23
9,RSLKHLCRLKIRKCMGRLHLRCPVFMSFLPEPNRLKAYVLY [L31E],-0.846 ± 0.11
10,RSLKHLCRLKIRKCMGRLHLRCPVFMSFLPPPNRLKAYVLY [L31P],-0.476 ± 0.46
11,RSLKHLCRLKIRKCMGRLHLRCPVFMSFLPDPNRLKAYVLY [L31D],-0.256 ± 0.16
12,RSLKRLCRLKIRKCMGRLHLRCPVFMSFLPLPNRLKAYVLY [H5R],-0.285 ± 0.054
13,RSLKGLCRLKIRKCMGRLHLRCPVFMSFLPLPNRLKAYVLY [H5G],-0.37 ± 0.048
14,RSLKMLCRLKIRKCMGRLHLRCPVFMSFLPLPNRLKAYVLY [H5M],0.057 ± 0.1
15,RSLKQLCRLKIRKCMGRLHLRCPVFMSFLPLPNRLKAYVLY [H5Q],-0.296 ± 0.17
16,RSLKLLCRLKIRKCMGRLHLRCPVFMSFLPLPNRLKAYVLY [H5L],-0.184 ± 0.052
17,RSLKSLCRLKIRKCMGRLHLRCPVFMSFLPLPNRLKAYVLY [H5S],0.069 ± 0.089
18,RRLKHLCRLKIRKCMGRLHLRCPVFMSFLPLPNRLKAYVLY [S2R],-0.153 ± 0.063
19,RMLKHLCRLKIRKCMGRLHLRCPVFMSFLPLPNRLKAYVLY [S2M],0.48 ± 0.36
20,RELKHLCRLKIRKCMGRLHLRCPVFMSFLPLPNRLKAYVLY [S2E],-0.057 ± 0.09

# Source: the Human Domainome abundance scans (Beltran et al. 2025)
